Experimental data as given in US20120165503A1 (Merck Sharp & Dohme, published 2012).
*1 amine or outer side, *2 acyl side, *3 side chain or, on linkers, in order; H or OH if unused. Where no end group is shown, it is not given here. Side-chain parts run from the residue outwards. [ ]: non-standard residue; d: D form. The star is where a group is joined. d(γGlu) = O=C(O)[C@@H](CCC(=O)[*:2])N[*:1]; γGlu = O=C(O)[C@H](CCC(=O)[*:2])N[*:1]; Palmitoyl = CCCCCCCCCCCCCCCC(=O)*; Aib = CC(C)(N)C(=O)O

B1: MM102 (peptide)
peptide: H[dS]QGTFTSDK([γGlu-γGlu-Palmitoyl])SKYLD[Aib]RRAQDFVQWLMNTE[γGlu]-NH2
modifications: N-terminus assumed
SMILES: CCCCCCCCCCCCCCCC(=O)N[C@@H](CCC(=O)N[C@@H](CCC(=O)NCCCC[C@H](NC(=O)[C@H](CC(=O)O)NC(=O)[C@H](CO)NC(=O)[C@@H](NC(=O)[C@H](Cc1ccccc1)NC(=O)[C@@H](NC(=O)CNC(=O)[C@H](CCC(N)=O)NC(=O)[C@@H](CO)NC(=O)[C@@H](N)Cc1c[nH]cn1)[C@@H](C)O)[C@@H](C)O)C(=O)N[C@@H](CO)C(=O)N[C@@H](CCCCN)C(=O)N[C@@H](Cc1ccc(O)cc1)C(=O)N[C@@H](CC(C)C)C(=O)N[C@@H](CC(=O)O)C(=O)NC(C)(C)C(=O)N[C@@H](CCCNC(=N)N)C(=O)N[C@@H](CCCNC(=N)N)C(=O)N[C@@H](C)C(=O)N[C@@H](CCC(N)=O)C(=O)N[C@@H](CC(=O)O)C(=O)N[C@@H](Cc1ccccc1)C(=O)N[C@H](C(=O)N[C@@H](CCC(N)=O)C(=O)N[C@@H](Cc1c[nH]c2ccccc12)C(=O)N[C@@H](CC(C)C)C(=O)N[C@@H](CCSC)C(=O)N[C@@H](CC(N)=O)C(=O)N[C@H](C(=O)N[C@@H](CCC(=O)O)C(=O)N[C@@H](CCC(N)=O)C(=O)O)[C@@H](C)O)C(C)C)C(=O)O)C(=O)O
B2: MM103 (peptide)
peptide: H[dS]QGTFTSDK([γGlu-γGlu-Palmitoyl])SKYLD[Aib]RRAQDFVQWLMNT[dK][γGlu]-NH2
modifications: N-terminus assumed
SMILES: CCCCCCCCCCCCCCCC(=O)N[C@@H](CCC(=O)N[C@@H](CCC(=O)NCCCC[C@H](NC(=O)[C@H](CC(=O)O)NC(=O)[C@H](CO)NC(=O)[C@@H](NC(=O)[C@H](Cc1ccccc1)NC(=O)[C@@H](NC(=O)CNC(=O)[C@H](CCC(N)=O)NC(=O)[C@@H](CO)NC(=O)[C@@H](N)Cc1c[nH]cn1)[C@@H](C)O)[C@@H](C)O)C(=O)N[C@@H](CO)C(=O)N[C@@H](CCCCN)C(=O)N[C@@H](Cc1ccc(O)cc1)C(=O)N[C@@H](CC(C)C)C(=O)N[C@@H](CC(=O)O)C(=O)NC(C)(C)C(=O)N[C@@H](CCCNC(=N)N)C(=O)N[C@@H](CCCNC(=N)N)C(=O)N[C@@H](C)C(=O)N[C@@H](CCC(N)=O)C(=O)N[C@@H](CC(=O)O)C(=O)N[C@@H](Cc1ccccc1)C(=O)N[C@H](C(=O)N[C@@H](CCC(N)=O)C(=O)N[C@@H](Cc1c[nH]c2ccccc12)C(=O)N[C@@H](CC(C)C)C(=O)N[C@@H](CCSC)C(=O)N[C@@H](CC(N)=O)C(=O)N[C@H](C(=O)N[C@H](CCCCN)C(=O)N[C@@H](CCC(N)=O)C(=O)O)[C@@H](C)O)C(C)C)C(=O)O)C(=O)O
B3: MM113 (peptide)
peptide: H[dS]QGTFTSDK([γGlu-γGlu-Palmitoyl])SKYLD[Aib]RRAQDFVQWLMNTE[d(γGlu)]-NH2
modifications: N-terminus assumed
SMILES: CCCCCCCCCCCCCCCC(=O)N[C@@H](CCC(=O)N[C@@H](CCC(=O)NCCCC[C@H](NC(=O)[C@H](CC(=O)O)NC(=O)[C@H](CO)NC(=O)[C@@H](NC(=O)[C@H](Cc1ccccc1)NC(=O)[C@@H](NC(=O)CNC(=O)[C@H](CCC(N)=O)NC(=O)[C@@H](CO)NC(=O)[C@@H](N)Cc1c[nH]cn1)[C@@H](C)O)[C@@H](C)O)C(=O)N[C@@H](CO)C(=O)N[C@@H](CCCCN)C(=O)N[C@@H](Cc1ccc(O)cc1)C(=O)N[C@@H](CC(C)C)C(=O)N[C@@H](CC(=O)O)C(=O)NC(C)(C)C(=O)N[C@@H](CCCNC(=N)N)C(=O)N[C@@H](CCCNC(=N)N)C(=O)N[C@@H](C)C(=O)N[C@@H](CCC(N)=O)C(=O)N[C@@H](CC(=O)O)C(=O)N[C@@H](Cc1ccccc1)C(=O)N[C@H](C(=O)N[C@@H](CCC(N)=O)C(=O)N[C@@H](Cc1c[nH]c2ccccc12)C(=O)N[C@@H](CC(C)C)C(=O)N[C@@H](CCSC)C(=O)N[C@@H](CC(N)=O)C(=O)N[C@H](C(=O)N[C@@H](CCC(=O)O)C(=O)N[C@H](CCC(N)=O)C(=O)O)[C@@H](C)O)C(C)C)C(=O)O)C(=O)O

Biological target: human glucagon receptor (human, UniProt P47871 26-477)
Sequence (P47871 26-477): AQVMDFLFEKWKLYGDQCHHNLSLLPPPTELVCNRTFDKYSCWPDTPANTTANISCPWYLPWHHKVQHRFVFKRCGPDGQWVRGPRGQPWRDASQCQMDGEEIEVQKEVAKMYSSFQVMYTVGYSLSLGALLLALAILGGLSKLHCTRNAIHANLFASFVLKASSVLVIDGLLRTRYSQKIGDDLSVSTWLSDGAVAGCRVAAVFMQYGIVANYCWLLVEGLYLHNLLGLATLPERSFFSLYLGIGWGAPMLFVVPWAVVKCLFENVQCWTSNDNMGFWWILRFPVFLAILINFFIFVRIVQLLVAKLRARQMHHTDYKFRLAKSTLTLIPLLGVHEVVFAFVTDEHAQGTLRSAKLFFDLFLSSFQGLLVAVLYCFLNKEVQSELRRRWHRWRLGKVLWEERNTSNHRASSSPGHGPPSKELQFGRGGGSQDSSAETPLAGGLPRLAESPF
Assay: cell-based or functional assay

Row | Binder | hGCGR EC50 [nM]
1 | B1 | 0.003
2 | B2 | 0.005
3 | B3 | 0.006

Biological target: human GLP-1 receptor (human, UniProt P43220 24-463)
Assay: cell-based or functional assay

Row | Binder | hGLP-1R EC50 [nM]
4 | B1 | 0.034
5 | B2 | 0.026
6 | B3 | 0.023
